One assay addresses T1, integrin αVβ5 (UniProt P06756 31-992; P18084 24-719).
T1 construct: Coated on the ELISA plate
The assay can be described thus: ELISA, integrin coated, anti-MICA-HRP.

A further assay deals with T2, integrin αVβ3 (UniProt P06756 31-992; P05106 27-718).
T2 construct: Coated on the ELISA plate
The assay can be described thus: ELISA, integrin coated, anti-MICA-HRP. A general note: ELISA stands for enzyme-linked immunosorbent assay.

This note sets out measurements from patent EP2658867B1 (Avidbiotics Corp., dated 2018).

T1 sequence (P06756 31-992, chain 1 of 2): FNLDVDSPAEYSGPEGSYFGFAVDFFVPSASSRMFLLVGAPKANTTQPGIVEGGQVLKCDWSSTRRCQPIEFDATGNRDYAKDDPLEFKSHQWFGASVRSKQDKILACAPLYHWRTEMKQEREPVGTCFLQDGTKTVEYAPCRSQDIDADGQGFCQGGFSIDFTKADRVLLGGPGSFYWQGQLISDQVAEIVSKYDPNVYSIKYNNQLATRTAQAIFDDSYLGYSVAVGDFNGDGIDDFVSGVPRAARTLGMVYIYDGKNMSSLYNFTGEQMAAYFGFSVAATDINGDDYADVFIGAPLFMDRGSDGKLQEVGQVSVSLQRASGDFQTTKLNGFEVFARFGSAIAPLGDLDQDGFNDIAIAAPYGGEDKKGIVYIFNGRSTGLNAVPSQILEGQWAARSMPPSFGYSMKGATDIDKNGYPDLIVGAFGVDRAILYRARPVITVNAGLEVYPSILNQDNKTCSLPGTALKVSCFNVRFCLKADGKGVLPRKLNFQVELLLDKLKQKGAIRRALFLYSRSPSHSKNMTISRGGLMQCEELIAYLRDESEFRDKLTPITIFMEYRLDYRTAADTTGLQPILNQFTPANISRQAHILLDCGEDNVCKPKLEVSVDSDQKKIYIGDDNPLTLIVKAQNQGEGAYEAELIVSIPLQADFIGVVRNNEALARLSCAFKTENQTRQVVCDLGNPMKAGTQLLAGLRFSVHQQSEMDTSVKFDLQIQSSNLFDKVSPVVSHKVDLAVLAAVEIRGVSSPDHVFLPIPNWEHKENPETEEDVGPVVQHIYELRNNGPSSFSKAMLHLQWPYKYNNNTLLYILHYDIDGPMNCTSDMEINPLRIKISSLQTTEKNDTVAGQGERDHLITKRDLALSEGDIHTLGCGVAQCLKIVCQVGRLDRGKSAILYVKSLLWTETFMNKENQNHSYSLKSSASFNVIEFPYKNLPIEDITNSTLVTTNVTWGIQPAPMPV
T1 sequence (P18084 24-719, chain 2 of 2): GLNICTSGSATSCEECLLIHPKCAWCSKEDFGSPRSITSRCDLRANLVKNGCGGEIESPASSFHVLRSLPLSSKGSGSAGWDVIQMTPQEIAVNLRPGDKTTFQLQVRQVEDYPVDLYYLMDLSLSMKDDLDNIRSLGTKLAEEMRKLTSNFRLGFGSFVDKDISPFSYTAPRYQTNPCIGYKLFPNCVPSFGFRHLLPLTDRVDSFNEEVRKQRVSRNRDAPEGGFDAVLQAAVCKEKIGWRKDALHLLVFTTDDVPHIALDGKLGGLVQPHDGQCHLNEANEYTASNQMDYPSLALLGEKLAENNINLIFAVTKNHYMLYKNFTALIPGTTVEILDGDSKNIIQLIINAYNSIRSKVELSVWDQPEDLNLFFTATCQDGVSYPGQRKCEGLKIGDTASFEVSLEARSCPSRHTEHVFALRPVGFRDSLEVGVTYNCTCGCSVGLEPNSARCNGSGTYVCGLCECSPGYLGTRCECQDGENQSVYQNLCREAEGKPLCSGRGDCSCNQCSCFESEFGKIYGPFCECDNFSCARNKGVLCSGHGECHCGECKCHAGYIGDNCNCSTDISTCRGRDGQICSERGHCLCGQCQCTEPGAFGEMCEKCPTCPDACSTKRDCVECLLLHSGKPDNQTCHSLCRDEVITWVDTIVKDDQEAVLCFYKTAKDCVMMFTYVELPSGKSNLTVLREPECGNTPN
T2 sequence (P06756 31-992, chain 1 of 2): as the sequence (P06756 31-992, chain 1 of 2) above
T2 sequence (P05106 27-718, chain 2 of 2): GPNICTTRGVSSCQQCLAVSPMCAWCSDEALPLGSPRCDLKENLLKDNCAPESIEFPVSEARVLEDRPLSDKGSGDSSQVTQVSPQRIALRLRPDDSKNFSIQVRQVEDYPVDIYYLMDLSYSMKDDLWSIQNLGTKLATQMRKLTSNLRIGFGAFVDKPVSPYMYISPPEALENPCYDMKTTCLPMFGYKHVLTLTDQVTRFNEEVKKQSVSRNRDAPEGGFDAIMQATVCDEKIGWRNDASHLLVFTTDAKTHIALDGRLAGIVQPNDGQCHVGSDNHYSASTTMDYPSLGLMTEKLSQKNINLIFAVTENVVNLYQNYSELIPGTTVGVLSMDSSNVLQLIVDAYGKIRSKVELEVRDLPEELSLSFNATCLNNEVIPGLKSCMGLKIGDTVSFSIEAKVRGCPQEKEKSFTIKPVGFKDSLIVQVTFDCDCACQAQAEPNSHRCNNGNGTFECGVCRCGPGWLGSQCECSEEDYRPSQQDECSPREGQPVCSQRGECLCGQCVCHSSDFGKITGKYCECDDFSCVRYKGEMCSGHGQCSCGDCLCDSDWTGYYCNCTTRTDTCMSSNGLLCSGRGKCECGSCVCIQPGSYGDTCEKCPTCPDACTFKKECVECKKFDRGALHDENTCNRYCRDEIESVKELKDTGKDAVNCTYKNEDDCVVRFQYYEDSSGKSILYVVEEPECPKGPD

B1: soluble MICA generated by pKK44 (extended loop 3.2sp in loop 1) (designed binder)
chain: HHHHHHEPHSLRYNLTVLSWDGSVQSGFLTEVHLDGQPFLRCDRQKCRAKPQGQWAEDVLGNKTWDRETRDLTGNGKDLRMTLAHIKDQKEGLHSLQEIRVCEIHEDNSTRSSQHFYYDGELFLSQNLETEEWTMPQSSRAQTLAMNVRNFLKEDAMKTKTHYHAMHADCLQELRRYLKSGVVLRRTVPPMVNVTSGGSGGGSTSRGDHPRTQSGGSGGGVTCRASGFYPWNITLSWRQDGVSLSHDTQQWGDVLPDGNGTYQTWVATRICQGEEQRFTCYMEHSGNHSTHPVPSGK
In the assay with integrin αVβ5, B1 gave a signal of 0.46 OD and a signal/ng of 10 signal/ng. In the assay with integrin αVβ3, this molecule had a signal of 0.41 OD and a signal/ng of 8.92 signal/ng.

B2: soluble MICA generated by pKK45 (extended loop 3.3sp in loop 1) (designed binder)
chain: HHHHHHEPHSLRYNLTVLSWDGSVQSGFLTEVHLDGQPFLRCDRQKCRAKPQGQWAEDVLGNKTWDRETRDLTGNGKDLRMTLAHIKDQKEGLHSLQEIRVCEIHEDNSTRSSQHFYYDGELFLSQNLETEEWTMPQSSRAQTLAMNVRNFLKEDAMKTKTHYHAMHADCLQELRRYLKSGVVLRRTVPPMVNVTSGGSGGGSRVPRGDSDLTSGGSGGGVTCRASGFYPWNITLSWRQDGVSLSHDTQQWGDVLPDGNGTYQTWVATRICQGEEQRFTCYMEHSGNHSTHPVPSGK
As to B2, the signal turned out to be 0.41 OD with integrin αVβ5 and 0.393 OD in the assay with integrin αVβ3. The signal/ng in the assay with integrin αVβ5 was 9.92 signal/ng; with integrin αVβ3 it was 9.51 signal/ng.

B3: soluble MICA generated by pKK41 (loop 5.2 in loop 1) (designed binder)
chain: HHHHHHEPHSLRYNLTVLSWDGSVQSGFLTEVHLDGQPFLRCDRQKCRAKPQGQWAEDVLGNKTWDRETRDLTGNGKDLRMTLAHIKDQKEGLHSLQEIRVCEIHEDNSTRSSQHFYYDGELFLSQNLETEEWTMPQSSRAQTLAMNVRNFLKEDAMKTKTHYHAMHADCLQELRRYLKSGVVLRRTVPPMVNVTRGDTFTQSVTCRASGFYPWNITLSWRQDGVSLSHDTQQWGDVLPDGNGTYQTWVATRICQGEEQRFTCYMEHSGNHSTHPVPSGK
As to B3, in the assay with integrin αVβ5, the signal amounted to 0.65 OD and the signal/ng turned out to be 22.4 signal/ng. In the assay with integrin αVβ3, the signal is 0.516 OD and the signal/ng was determined as 17.7 signal/ng.

B4: soluble MICA generated by pKK35 (His10sp in loop 3) (designed binder)
chain: EPHSLRYNLTVLSWDGSVQSGFLTEVHLDGQPFLRCDRQKCRAKPQGQWAEDVLGNKTWDRETRDLTGNGKDLRMTLAHIKDQKEGLHSLQEIRVCEIHEDNSTRSSQHFYYDGELFLSQNLETKEWTMPQSSRAQTLAMNVRNFLKEDAMKTKTHYHAMHADCLQELRRYLKSGVVLRRTVPPMVNVTRSEASEGNITVTCRASGFYPWNITLSWRQDGVSLSHDTQQWGDVLPDGNGTYQTWVATRISGGSGGGSHHHHHHHHHHSGGSGGGCYMEHSGNHSTHPVPSGK
In the assay with integrin αVβ5, B4 had a signal of 0.392 OD and a signal/ng of 2.31 signal/ng. Further, in the assay with integrin αVβ3, the signal was determined as 0.419 OD and the signal/ng was determined as 2.46 signal/ng.

B5: soluble MICA generated by pKK48 (extended loop 3.2sp in loop 3) (designed binder)
chain: EPHSLRYNLTVLSWDGSVQSGFLTEVHLDGQPFLRCDRQKCRAKPQGQWAEDVLGNKTWDRETRDLTGNGKDLRMTLAHIKDQKEGLHSLQEIRVCEIHEDNSTRSSQHFYYDGELFLSQNLETKEWTMPQSSRAQTLAMNVRNFLKEDAMKTKTHYHAMHADCLQELRRYLKSGVVLRRTVPPMVNVTRSEASEGNITVTCRASGFYPWNITLSWRQDGVSLSHDTQQWGDVLPDGNGTYQTWVATRISGGSGGGSTSRGDHPRTQSGGSGGGCYMEHSGNHSTHPVPSGK
In the case of B5, in the assay with integrin αVβ5, the signal amounted to 0.604 OD and the signal/ng came out at 7.68 signal/ng. Besides, in the assay with integrin αVβ3, the signal is 0.478 OD and the signal/ng was determined as 6.08 signal/ng.

B6: soluble MICA generated by pKK38 (loop 3.3 in loop 1) (designed binder)
chain: HHHHHHEPHSLRYNLTVLSWDGSVQSGFLTEVHLDGQPFLRCDRQKCRAKPQGQWAEDVLGNKTWDRETRDLTGNGKDLRMTLAHIKDQKEGLHSLQEIRVCEIHEDNSTRSSQHFYYDGELFLSQNLETEEWTMPQSSRAQTLAMNVRNFLKEDAMKTKTHYHAMHADCLQELRRYLKSGVVLRRTVPPMVNVTRVPRGDSDLTVTCRASGFYPWNITLSWRQDGVSLSHDTQQWGDVLPDGNGTYQTWVATRICQGEEQRFTCYMEHSGNHSTHPVPSGK
Take B6: the signal with integrin αVβ5 and with integrin αVβ3 was 0.291 OD in each case. Moreover, the signal/ng with integrin αVβ5 and in the assay with integrin αVβ3 was 30.7 signal/ng throughout.

B7: soluble MICA generated by pKK39 (loop 3.4 in loop 1) (designed binder)
chain: HHHHHHEPHSLRYNLTVLSWDGSVQSGFLTEVHLDGQPFLRCDRQKCRAKPQGQWAEDVLGNKTWDRETRDLTGNGKDLRMTLAHIKDQKEGLHSLQEIRVCEIHEDNSTRSSQHFYYDGELFLSQNLETEEWTMPQSSRAQTLAMNVRNFLKEDAMKTKTHYHAMHADCLQELRRYLKSGVVLRRTVPPMVNVTRSARGDSDHRVTCRASGFYPWNITLSWRQDGVSLSHDTQQWGDVLPDGNGTYQTWVATRICQGEEQRFTCYMEHSGNHSTHPVPSGK
For the molecule B7, the signal amounted to 0.528 OD with integrin αVβ5 and 0.482 OD with integrin αVβ3. The signal/ng with integrin αVβ5 came to 19.7 signal/ng; with integrin αVβ3 it was 18 signal/ng.

B8: soluble MICA generated by pKK42 (loop 5.3 in loop 1) (designed binder)
chain: HHHHHHEPHSLRYNLTVLSWDGSVQSGFLTEVHLDGQPFLRCDRQKCRAKPQGQWAEDVLGNKTWDRETRDLTGNGKDLRMTLAHIKDQKEGLHSLQEIRVCEIHEDNSTRSSQHFYYDGELFLSQNLETEEWTMPQSSRAQTLAMNVRNFLKEDAMKTKTHYHAMHADCLQELRRYLKSGVVLRRTVPPMVNVTHLARGDDLTYVTCRASGFYPWNITLSWRQDGVSLSHDTQQWGDVLPDGNGTYQTWVATRICQGEEQRFTCYMEHSGNHSTHPVPSGK
Consider B8, for which, in the assay with integrin αVβ5, the signal was 0.565 OD and the signal/ng worked out at 22.8 signal/ng. In addition, in the assay with integrin αVβ3, the signal was 0.526 OD and the signal/ng worked out at 21.2 signal/ng.

B9: soluble MICA generated by pKK40 (loop 5.1 in loop 1) (designed binder)
chain: HHHHHHEPHSLRYNLTVLSWDGSVQSGFLTEVHLDGQPFLRCDRQKCRAKPQGQWAEDVLGNKTWDRETRDLTGNGKDLRMTLAHIKDQKEGLHSLQEIRVCEIHEDNSTRSSQHFYYDGELFLSQNLETEEWTMPQSSRAQTLAMNVRNFLKEDAMKTKTHYHAMHADCLQELRRYLKSGVVLRRTVPPMVNVTVTRGDTFTQSVTCRASGFYPWNITLSWRQDGVSLSHDTQQWGDVLPDGNGTYQTWVATRICQGEEQRFTCYMEHSGNHSTHPVPSGK
In the assay with integrin αVβ5, B9 returned a signal of 0.675 OD and a signal/ng of 27.1 signal/ng. In the assay with integrin αVβ3, this molecule yielded a signal of 0.485 OD and a signal/ng of 19.5 signal/ng.

B10: soluble MICA generated by pKK37 (loop 3.2 in loop 1) (designed binder)
chain: HHHHHHEPHSLRYNLTVLSWDGSVQSGFLTEVHLDGQPFLRCDRQKCRAKPQGQWAEDVLGNKTWDRETRDLTGNGKDLRMTLAHIKDQKEGLHSLQEIRVCEIHEDNSTRSSQHFYYDGELFLSQNLETEEWTMPQSSRAQTLAMNVRNFLKEDAMKTKTHYHAMHADCLQELRRYLKSGVVLRRTVPPMVNVTRTSRGDHPRTQVTCRASGFYPWNITLSWRQDGVSLSHDTQQWGDVLPDGNGTYQTWVATRICQGEEQRFTCYMEHSGNHSTHPVPSGK
In the case of B10, in the assay with integrin αVβ5, the signal worked out at 0.779 OD and the signal/ng was found to be 22.4 signal/ng. In the assay with integrin αVβ3, this molecule registered a signal of 0.777 OD and a signal/ng of 22.4 signal/ng.
